Measurements: publication PMC10686989, “Distinct activation mechanisms of β-arrestin-1 revealed by ^19F NMR spectroscopy” (Nature Communications, 2023)

Biological target: cysteine-less β-arrestin-1 D390C, 19F-labelled with wPSP-6F (human) (UniProt P49407)
Assay: NMR titration; 19F NMR of wPSP-6F-labelled βarr1 (D390C site) titrated with phosphopeptide; 298 K, 20 mM Tris-HCl, 150 mM NaCl, pH 8.0; Kd estimated

Chain of cysteine-less β-arrestin-1 D390C, 19F-labelled with wPSP-6F (human) (P49407 whole entry C59V/C125S/C140L/C150V/C242V/C251V/C269S/D390C): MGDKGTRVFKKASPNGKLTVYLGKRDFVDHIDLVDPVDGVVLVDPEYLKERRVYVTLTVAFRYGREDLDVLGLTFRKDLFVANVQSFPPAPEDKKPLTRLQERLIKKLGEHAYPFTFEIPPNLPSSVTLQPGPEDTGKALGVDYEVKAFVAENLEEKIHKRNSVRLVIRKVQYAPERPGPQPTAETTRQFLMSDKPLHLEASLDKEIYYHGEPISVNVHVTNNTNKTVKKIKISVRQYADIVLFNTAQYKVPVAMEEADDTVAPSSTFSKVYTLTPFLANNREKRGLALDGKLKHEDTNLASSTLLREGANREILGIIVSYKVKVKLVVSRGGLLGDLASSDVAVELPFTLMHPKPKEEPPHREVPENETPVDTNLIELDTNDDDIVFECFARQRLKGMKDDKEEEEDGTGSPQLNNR

Kd: 1300 nM
Substance: V2Rpp, phosphopeptide derived from the vasopressin V2 receptor (V2R)
